For series [1], the target named is T1, E. coli Undecaprenyldiphosphatsynthase (EcUPPS) (Escherichia coli, UniProt P60472).
T1 construct: made in house; host or cells: E. coli
T1 sequence (P60472 1-253): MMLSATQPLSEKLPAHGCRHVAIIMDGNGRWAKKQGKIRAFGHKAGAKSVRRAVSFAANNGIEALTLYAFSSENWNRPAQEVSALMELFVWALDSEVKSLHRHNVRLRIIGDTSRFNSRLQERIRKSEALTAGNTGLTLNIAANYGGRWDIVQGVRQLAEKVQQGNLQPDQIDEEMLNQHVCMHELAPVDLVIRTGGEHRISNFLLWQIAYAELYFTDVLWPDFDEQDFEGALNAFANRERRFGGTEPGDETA
As to the kind of experiment: MTP phosphate detection assay (diphosphate release, BIOMOL Green), substrate kinetics. In kind it is biochemical. The settings on record: for rel. kcat Km^-1: relative to natural substrate FPP (100 %). The method, then: (§1) Cis-Prenyltransferasen entlassen während der Reaktion Diphosphat nach jedem Kondensationsschritt. Dies ist der Ansatzpunkt, der gewählt wurde, um unabhängig von der Art des Produktes den Grundumsatz zu detektieren. […] Die Dreifachbestimmungen der Enzymreaktionen wurden mit 100 µL BIOMOL Green™ Detektionsreagenz gestoppt und nach weiteren 20 min in einem Mikrotiterplattenspektrophotometer bei 620 nm gemessen. Zur Kontrolle erfolgte für jede Substratkonzentration eine Messung mit denaturiertem Enzym zu den unterschiedlichen Zeitpunkten um Selbsthydrolyse der Substrate zu berücksichtigen. Zur Quantifizierung wurde eine Pi-Standardkurve in Doppelbestimmung mitgeführt. Die Verdünnung des KPi-Standards erfolgte in Assaypuffer, wurde mit 100 µL BIOMOL Green™ Detektionsreagenz nach Ablauf der Enzymreaktion in den Test-Wells detektiert und zeitgleich nach weiteren 20 min bei 620 nm gemessen. Eine lineare Beziehung zwischen A620 nm und Pi-Konzentration ermöglichte eine Quantifizierung zwischen 80 µM-0 µM Pi.
(§2) Die Bestimmung der FPP-Kinetiken der EcUPPS sowie der ThkCPT erfolgte unter analogen Bedingungen der Bestimmung von IPP. […] Die Enzymreaktion wurde nach 60 s, 120 s, 180 s, 300 s, 600 s, 900 s oder 1200 s durch Zugabe von 100 µL BIOMOL Green™ Detektionsreagenz gestoppt und wie oben beschrieben gemessen.
(§3) Die Assaybedingungen wurden wie in Beispiel 3 beschriebenen gewählt. […] Variation von 500 - 0 µM im Fall der Elongationssubstrate erfolgte konstant mit 10 µM FPP (jedes Homoallyldiphosphat möglich).
(§4) Zur Berechnung der Umsatzraten in nkat·mg^-1 wurde verwendet: ν0 = ((A620-ABlank)⋅1000)/(2⋅m⋅t⋅[E]) [formula] v0 Anfangsgeschwindigkeit der Diphosphathydrolyse (nkat·mg^-1) A620 Absorption bei 620 nm ABlank Absorption der Kontrolle bei 620 nm m Anstieg der Phosphatstandardkurve (µM^-1) t Dauer der Enzymreaktion (s) [E] Enzymkonzentration (mg·L^-1)
(§5) Die Auswertung erfolgte durch nicht-lineare Regression nach der Hill-Gleichung mit Sigma-Plot 11. […] Substratkonzentration (µM) h Hill-Koeffizient

Another series concerns the target T2, EcUPPS (Escherichia coli, UniProt P60472).
T2 construct: made in house; host or cells: E. coli
As to the kind of experiment: Product chain length by HPLC with fluorescent starter substrate 110. The settings on record: 10 µM EcUPPS, 110 as starter substrate, HPLC of hydrolysed products. In kind it is biochemical. The method, then:
(§6) Zur Bestimmung der Produktkettenlängen wurden 500 µL Enzymassays in MS-Gläschen durchgeführt. […] Die Extraktion der Polyprenyldiphosphate erfolgte mit 500 µL 1-Butanol. Die Butanolphase wurde in ein neues Glas überführt und unter Stickstoffstrom von dem Lösungsmittel befreit. Die Hydrolyse der Diphosphate zum Polyprenol erfolgte durch Zugabe von 200 µL Hydrolysepuffer (20% Isopropanol, 4,4 Units/mL saure Phophatase aus Kartoffeln, 0,1 % Triton X-100, 50 mM Natriumacetat (pH 4,7)) und wurde über Nacht bei 37 °C inkubiert. Die Polyprenole wurden mit 500 µL nHexan extrahiert und zur weiteren DC- oder HPLC-Analyse vorbereitet. Für DC-Experimente und LC/ESI-MS-Analysen wurde die nHexan-Phase in ein neues Glas überführt, das Lösungsmittel abgedampft und die Produkte erneut in 100 µL nHexan resuspendiert um eine Aufkonzentrierung zu erreichen. Für HPLC-Analysen mit 110 ((2E,6E)-8-O-(N-methyl-2-aminobenzoyl)-3,7-dimethyl-2,6-octandien-1-diphosphat) als Startersubstrat wurde die nHexan-Phase 1:3 verdünnt in das HPLC-System mittels Autosampler injiziert.
Die HPLC-Analyse der Polyprenole erfolgte an einer Anlage von Merck HITACHI D-7000, wobei als stationäre Phase eine YMC-ODS AQ (150 x 4 mm, 5 µm; YMC Europe GmbH, Dinslaken) Säule verwendet wurde. Die Elution erfolgte mit 1 mL·min^-1 und die Detektion bei 210 nm mit einem UV-VIS Detektor: Merck HITACHI L-7420. […]

The target of a further series is T3, ThkCPT (Thermococcus kodakarensis, UniProt Q5JGE1).
T3 construct: made in house; host or cells: E. coli
T3 sequence (Q5JGE1 1-264): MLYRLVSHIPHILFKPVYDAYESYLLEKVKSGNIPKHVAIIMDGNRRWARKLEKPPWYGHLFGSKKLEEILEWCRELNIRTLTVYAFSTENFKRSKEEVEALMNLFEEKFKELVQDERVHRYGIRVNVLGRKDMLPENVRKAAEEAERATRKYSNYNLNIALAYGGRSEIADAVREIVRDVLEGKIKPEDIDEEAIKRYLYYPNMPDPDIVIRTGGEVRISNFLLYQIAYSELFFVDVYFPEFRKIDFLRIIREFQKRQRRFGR
Described as above. In kind it is biochemical, Thermococcus kodakaraensis. The method, then: as §6
Die HPLC-Analyse der Polyprenole erfolgte an einer Anlage von Merck HITACHI D-7000, wobei als stationäre Phase eine YMC-ODS AQ (150 x 4 mm, 5 µm; YMC Europe GmbH, Dinslaken) Säule verwendet wurde. Die Elution erfolgte mit 1 mL·min^-1 und die Detektion bei 210 nm mit einem UV-VIS Detektor: Merck HITACHI L-7420. Das Injektionsvolumen betrug dabei 5 µL. Die mobile Phase setzte sich aus Laufmittel A (MeOH/H2O/Isopropanol 12:1:8 (v/v/v)) und Laufmittel B (nHexan/Isopropanol 7:3 (v/v)) zusammen. Die Probenaufgabe erfolgte mittels Autosampler (Merck HITACHI L-7250). [drawing 35]
Zur selektiven und vor allem sensitiven Detektion von Polyprenolen kann ein alternatives, fluoreszierendes Startersubstrat verwendet werden, (2E,6E)-8-O-(N-methyl-2-aminobenzoyl)-3,7-dimethyl-2,6-octandien-1-diphosphat (110). Die Analyse erfolgte wie in Beispiel 6 beschrieben. Dabei wurden 3 µL pro Probe injiziert und die Detektion erfolgte über Fluoreszenz: Ex 352 nm / Em 420 nm wobei das Gerät Merck HITACHI L-7480 als Fluoreszenzdetektor verwendet wurde. […]

In series [2] the target is T4, Thermococcus kodakaraensis cis-Prenyltransferase (ThkCPT) (Thermococcus kodakarensis, UniProt Q5JGE1).
T4 construct: made in house; host or cells: E. coli
T4 sequence (Q5JGE1 1-264): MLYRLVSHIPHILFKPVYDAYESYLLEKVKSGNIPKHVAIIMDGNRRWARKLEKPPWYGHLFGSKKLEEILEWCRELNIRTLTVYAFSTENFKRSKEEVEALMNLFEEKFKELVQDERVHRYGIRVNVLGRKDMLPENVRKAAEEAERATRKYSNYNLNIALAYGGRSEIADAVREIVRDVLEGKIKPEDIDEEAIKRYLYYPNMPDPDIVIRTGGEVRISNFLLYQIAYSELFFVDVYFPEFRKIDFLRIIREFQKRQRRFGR
As to the kind of experiment: MTP phosphate detection assay (diphosphate release, BIOMOL Green), substrate kinetics. In kind it is biochemical. Conditions: elongation substrate varied, starter FPP 10 µM, room temperature. The method, then: as §1, §2, §3, §4, §5

Substrate in series [3]: C=C(Cl)CCOP(=O)(O)OP(=O)(O)O
Described as above. In kind it is biochemical, Escherichia coli. Conditions: other: elongation substrate varied 500 - 0 µM, starter FPP constant 10 µM; 22.0 °C. The method, then:
as §1, §2, §3, §4, §5

Substrate in series [4]: CC(C)=CCC/C(C)=C/COP(=O)(O)OP(=O)(O)O
Described as above. In kind it is biochemical, Escherichia coli. The settings on record: other: starter substrate varied 80 - 0 µM, elongation substrate IPP constant 150 µM, 22°C. The method, then:
as §1, §2, §3, §4, §5

Substrate in series [5]: C=C(Br)CCOP(=O)(O)OP(=O)(O)O
Described as above. In kind it is biochemical, Escherichia coli. Conditions: other: elongation substrate varied 500 - 0 µM, starter FPP constant 10 µM; 22.0 °C. The method, then: as §1, §2, §3, §4, §5

Substrate in series [6]: C=C(C)CCO[P@@](=O)(O)OP(=O)(O)O
The description is as above. In kind it is biochemical, Escherichia coli. The settings on record: other: elongation substrate varied 500 - 0 µM, starter FPP constant 10 µM; 22.0 °C. The method, then:
as §1, §2, §3, §4, §5

Substrate in series [7]: CC(C)=CCC/C(C)=C/CC/C(C)=C/CC/C(C)=C/COP(=O)(O)OP(=O)(O)O
The description is as above. In kind it is biochemical, Escherichia coli. Conditions: other: starter substrate varied 80 - 0 µM, elongation substrate IPP constant 150 µM, 22°C. The method, then:
as §1, §2, §3, §4, §5

Substrate in series [8]: CNc1ccccc1C(=O)OC/C(C)=C/CC/C(C)=C/COP(=O)(O)OP(=O)(O)O
The description is as above. In kind it is biochemical, Escherichia coli. Conditions: other: starter substrate varied 80 - 0 µM, elongation substrate IPP constant 150 µM, 22°C. The method, then: as §1, §2, §3, §4, §5

Substrate in series [9]: C=C(Cl)CCOP(=O)(O)OP(=O)(O)O
The description is as above. Conditions: other: elongation substrate varied, starter FPP 10 µM, room temperature. In kind it is biochemical, Thermococcus kodakaraensis. The method, then: as §1, §2, §3, §4, §5

Substrate in series [10]: C=C(Br)CCOP(=O)(O)OP(=O)(O)O
The description is as above. In kind it is biochemical, Thermococcus kodakaraensis. The settings on record: other: elongation substrate varied, starter FPP 10 µM, room temperature. The method, then: as §1, §2, §3, §4, §5

Substrate in series [11]: C=C(C)CCO[P@@](=O)(O)OP(=O)(O)O
Kind of series: purified protein, by the assay type. Conditions: other: elongation substrate varied, starter FPP 10 µM, room temperature.

The mark [12] stands for this setting: starter substrate varied, IPP constant 150 µM.

As to `CC(C)=CCC/C(C)=C/CC/C(C)=C\COP(=O)(O)OP(=O)(O)O` [Z,E-FPP], in [1], the “rel. kcat Km^-1” value worked out at 90%.
With `C=C(Br)CCOP(=O)(O)OP(=O)(O)O` [Br-BPP, 3-Brom-3-Butenyldiphosphat], at EcUPPS, the “Kondensationsschritte / Elongationseinheiten” value amounted to 2. Further, the “Kondensationen (Reaktionsprodukte)” value at ThkCPT (10 µM ThkCPT, 110 as starter substrate, room temperature 25°C) is reported as “mehr als zwei Kondensationen”. The kcat is 0,0004 s^-1 in [1] (elongation substrate varied, starter FPP 10 µM) and 0,0004 s^-1 in [2].
As for `CC(C)=CCC/C(C)=C/CC/C(C)=C/CC/C(C)=C/COP(=O)(O)OP(=O)(O)O` [GGPP, Geranylgeranyldiphosphat], the “rel. kcat Km^-1” value in series [1] is given as 76%.
Consider `CNc1ccccc1C(=O)OC/C(C)=C/CC/C(C)=C/COP(=O)(O)OP(=O)(O)O` [Substrat 110, (2E,6E)-8-O-(N-methyl-2-aminobenzoyl)-3,7-dimethyl-2,6-octandien-1-diphosphat], for which the “Akzeptanz als Startersubstrat der ThkCPT” value at ThkCPT (65°C) was “als Startersubstrat akzeptiert”. Moreover, the “rel. kcat Km^-1” value in series [1] is on record as 4%.
Regarding Farnesyldiphosphat [FPP], the “rel. kcat Km^-1” value in series [1] is reported as 100%. Moreover, the Michaelis-Menten constant (Km) in series [1] (starter substrate varied 80 - 0 µM, elongation substrate IPP constant 150 µM, 22°C) was 1.8 µM. For the same molecule, in series [1] (setting [12]), the kcat is listed as 0,5 s^-1 and the vmax is given as 17,9 ± 0,4 nkat/mg.

B1: E. coli Undecaprenyldiphosphatsynthase (EcUPPS) (Escherichia coli K-12) (protein)
chain: MMLSATQPLSEKLPAHGCRHVAIIMDGNGRWAKKQGKIRAFGHKAGAKSVRRAVSFAANNGIEALTLYAFSSENWNRPAQEVSALMELFVWALDSEVKSLHRHNVRLRIIGDTSRFNSRLQERIRKSEALTAGNTGLTLNIAANYGGRWDIVQGVRQLAEKVQQGNLQPDQIDEEMLNQHVCMHELAPVDLVIRTGGEHRISNFLLWQIAYAELYFTDVLWPDFDEQDFEGALNAFANRERRFGGTEPGDETA
notes: made in house; host or cells: E. coli
With B1, the Michaelis constant (Km) in series [3] is 3.8 µM; in series [4], 48,8 ± 8,3 µM; in series [5], 6.4 µM; in series [6], 6.5 µM; in [7], 1.9 µM; in [8], 5.6 µM. Further, the Vmax is recorded as 0,03 nkat mg^-1 in [3]; 11,3 ± 0,7 nkat/mg in series [4]; 0,02 nkat mg^-1 in series [5]; 14,4 nkat mg^-1 in series [6]; 14,9 ± 0,3 nkat/mg in series [7]; 1,9 ± 0,1 nkat/mg in series [8]. For the same molecule, the kcat in series [4] is 0,3 s^-1; in [6], 0,4 s^-1; in series [7], 0,4 s^-1; in series [8], 0,1 s^-1. Also, the figures for the kcat/Km in series [4], in series [7] and in series [8] were 7000 M⁻¹ s⁻¹, 223000 M⁻¹ s⁻¹ and 11000 M⁻¹ s⁻¹, respectively.

B2: Thermococcus kodakaraensis cis-Prenyltransferase (ThkCPT) (Thermococcus kodakarensis KOD1) (protein)
chain: MLYRLVSHIPHILFKPVYDAYESYLLEKVKSGNIPKHVAIIMDGNRRWARKLEKPPWYGHLFGSKKLEEILEWCRELNIRTLTVYAFSTENFKRSKEEVEALMNLFEEKFKELVQDERVHRYGIRVNVLGRKDMLPENVRKAAEEAERATRKYSNYNLNIALAYGGRSEIADAVREIVRDVLEGKIKPEDIDEEAIKRYLYYPNMPDPDIVIRTGGEVRISNFLLYQIAYSELFFVDVYFPEFRKIDFLRIIREFQKRQRRFGR
notes: as for B1
Consider B2, for which, in series [9], the Michaelis-Menten constant (Km) is given as 21,2+/-2,1 µM and the Vmax is recorded as 0,01 nKat mg^-1. Moreover, in series [10], the Michaelis-Menten constant (Km) is reported as 54,0 +/- 11,1 µM and the Vmax is reported as 0,01 nKat mg^-1. Moreover, in series [11], the Km stood at 14.8 µM, the Vmax is given as 2,0 nKat mg^-1 and the kcat is listed as 0,07 s^-1.

(Values after EP2848693A1, “Concatenation of halogenated alkenyl diphosphate derivatives” (LANXESS Deutschland GmbH, priority 2013, dated 2015).)
